Test results reported in patent US20250382373A1 (BIOCYTOGEN PHARMACEUTICALS BEIJING, published 2025).
Where two headings read alike, the source gives them in different places.

Legend:
[1] = biological target: human MET on hMET-NIH3T3 cells (human, UniProt P08581 25-1390); assay: flow cytometry on hMET-NIH3T3 cells; also: test concentration or dose not given here
[2] = biological target: T1, monkey MET on fasMET-NIH3T3 cells (monkey (Macaca fascicularis)); assay: flow cytometry on fasMET-NIH3T3 cells; also: test concentration or dose not given here
[3] = biological target: T2, His-tagged human MET protein (human, UniProt P08581 25-932); assay: SPR (Biacore 8K), antibody on Protein A chip
T2 construct: Bought protein; also called hMET-His; not shown: His tag

[4] = biological target: T3, monkey EGFR on CHO-S-fasEGFR cells (monkey (crab-eating macaque; Macaca …, UniProt P55245 25-645); assay: flow cytometry on CHO-S-fasEGFR cells; also: test concentration or dose not given here
[5] = biological target: T4, human EGFR on CHO-S-hEGFR cells (human, UniProt P00533 25-645); assay: flow cytometry on CHO-S-hEGFR cells
[6] = biological target: T5, His-tagged monkey EGFR protein (monkey (crab-eating macaque; Macaca …, UniProt A0A2K5WK39 25-645); assay: SPR (Biacore 8K), antibody on Protein A chip
T5 construct: also called fasEGFR-His; not shown: His tag

[7] = biological target: T6, His-tagged human EGFR protein (human, UniProt P00533 25-645); assay: SPR (Biacore 8K), antibody on Protein A chip
T6 construct: Bought protein; also called hEGFR-His; not shown: His tag

[8] = biological target: T2, His-tagged human MET protein; assay: SPR (Biacore 8K), Protein A chip
[9] = biological target: T5, His-tagged monkey EGFR protein; assay: SPR (Biacore 8K), Protein A chip
[10] = biological target: T6, His-tagged human EGFR protein; assay: SPR (Biacore 8K), Protein A chip
[11] = biological target: T4, human EGFR on CHO-S-hEGFR cells; assay: flow cytometry on CHO-S-hEGFR cells; remark: listed apart in the source
[12] = biological target: T3, monkey EGFR on CHO-S-fasEGFR cells; assay: flow cytometry on CHO-S-fasEGFR cells; remark: listed apart in the source; also: test concentration or dose not given here
[13] = biological target: T5, His-tagged monkey EGFR protein; assay: SPR (Biacore 8K), antibody on Protein A chip; remark: listed apart in the source
[14] = biological target: T6, His-tagged human EGFR protein; assay: SPR (Biacore 8K), antibody on Protein A chip; remark: listed apart in the source
[15] = biological target: T2, His-tagged human MET protein; assay: SPR (Biacore 8K), antibody on Protein A chip; remark: listed apart in the source
human MET on SNU-5 cells = biological target: T7, human MET on SNU-5 cells (human, UniProt P08581 25-1390); assay: flow cytometry on SNU-5 cells
T7 construct: whole, on cells; Endogenous MET of SNU-5 cells

[16] = biological target: T1, monkey MET on fasMET-NIH3T3 cells; assay: flow cytometry on fasMET-NIH3T3 cells; remark: listed apart in the source; also: test concentration or dose not given here

T2 sequence (P08581 25-932 limits assumed): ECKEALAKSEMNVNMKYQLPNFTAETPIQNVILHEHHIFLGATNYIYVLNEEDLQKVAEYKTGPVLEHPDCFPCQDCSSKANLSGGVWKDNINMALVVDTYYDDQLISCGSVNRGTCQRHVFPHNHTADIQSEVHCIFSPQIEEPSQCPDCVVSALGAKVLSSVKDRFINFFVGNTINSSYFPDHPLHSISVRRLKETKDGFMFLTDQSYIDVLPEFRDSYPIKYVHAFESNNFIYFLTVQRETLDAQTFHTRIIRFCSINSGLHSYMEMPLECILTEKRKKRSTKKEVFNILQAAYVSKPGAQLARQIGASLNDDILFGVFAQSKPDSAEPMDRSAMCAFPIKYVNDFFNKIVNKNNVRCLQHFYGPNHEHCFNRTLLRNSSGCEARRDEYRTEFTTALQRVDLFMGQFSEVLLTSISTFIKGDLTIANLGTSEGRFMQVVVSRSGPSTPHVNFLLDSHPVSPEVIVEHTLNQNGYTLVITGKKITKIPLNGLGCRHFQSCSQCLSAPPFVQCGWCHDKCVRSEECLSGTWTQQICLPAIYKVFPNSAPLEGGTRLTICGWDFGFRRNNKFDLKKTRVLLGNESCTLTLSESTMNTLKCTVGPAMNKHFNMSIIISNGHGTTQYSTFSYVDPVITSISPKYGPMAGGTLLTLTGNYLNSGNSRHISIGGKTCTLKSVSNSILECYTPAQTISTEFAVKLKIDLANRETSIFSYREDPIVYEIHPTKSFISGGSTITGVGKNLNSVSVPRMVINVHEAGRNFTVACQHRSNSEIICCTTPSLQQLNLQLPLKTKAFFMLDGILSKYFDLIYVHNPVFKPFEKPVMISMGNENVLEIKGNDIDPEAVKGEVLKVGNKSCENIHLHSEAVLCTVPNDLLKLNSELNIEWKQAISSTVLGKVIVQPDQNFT
T1 sequence (chain, as listed by the source limits assumed): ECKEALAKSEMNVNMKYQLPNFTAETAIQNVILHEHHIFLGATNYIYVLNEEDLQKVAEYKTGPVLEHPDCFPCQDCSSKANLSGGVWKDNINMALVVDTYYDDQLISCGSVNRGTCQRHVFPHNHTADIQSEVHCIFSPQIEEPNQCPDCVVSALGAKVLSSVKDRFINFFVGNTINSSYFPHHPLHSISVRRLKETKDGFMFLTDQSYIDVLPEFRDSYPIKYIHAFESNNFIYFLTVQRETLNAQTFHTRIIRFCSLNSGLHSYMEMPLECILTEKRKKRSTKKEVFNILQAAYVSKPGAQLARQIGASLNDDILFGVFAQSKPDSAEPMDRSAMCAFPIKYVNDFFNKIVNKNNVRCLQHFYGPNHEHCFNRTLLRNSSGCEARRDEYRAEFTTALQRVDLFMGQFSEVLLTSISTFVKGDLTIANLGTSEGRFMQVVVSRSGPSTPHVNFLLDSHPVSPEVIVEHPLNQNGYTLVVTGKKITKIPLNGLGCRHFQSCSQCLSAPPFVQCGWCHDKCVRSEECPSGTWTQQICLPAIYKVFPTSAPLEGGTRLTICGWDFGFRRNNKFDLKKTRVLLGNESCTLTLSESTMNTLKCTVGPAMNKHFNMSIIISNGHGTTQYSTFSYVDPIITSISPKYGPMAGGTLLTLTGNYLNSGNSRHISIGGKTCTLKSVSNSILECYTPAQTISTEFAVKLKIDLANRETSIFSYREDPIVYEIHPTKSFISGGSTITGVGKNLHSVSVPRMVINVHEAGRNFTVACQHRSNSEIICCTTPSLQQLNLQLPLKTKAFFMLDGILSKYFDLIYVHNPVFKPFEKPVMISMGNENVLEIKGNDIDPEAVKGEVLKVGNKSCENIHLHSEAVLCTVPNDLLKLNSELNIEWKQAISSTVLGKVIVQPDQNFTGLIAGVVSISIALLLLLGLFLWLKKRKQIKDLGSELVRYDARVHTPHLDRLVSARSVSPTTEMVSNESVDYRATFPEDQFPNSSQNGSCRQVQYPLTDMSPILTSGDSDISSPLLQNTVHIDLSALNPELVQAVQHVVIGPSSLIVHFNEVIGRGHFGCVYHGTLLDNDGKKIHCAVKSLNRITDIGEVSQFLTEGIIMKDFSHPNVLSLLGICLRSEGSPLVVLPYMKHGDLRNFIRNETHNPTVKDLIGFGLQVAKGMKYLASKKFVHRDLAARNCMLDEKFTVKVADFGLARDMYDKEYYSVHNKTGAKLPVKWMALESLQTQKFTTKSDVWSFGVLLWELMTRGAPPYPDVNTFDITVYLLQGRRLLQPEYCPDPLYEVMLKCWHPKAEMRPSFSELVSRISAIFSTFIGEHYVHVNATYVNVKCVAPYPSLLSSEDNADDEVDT
T7 sequence (P08581 25-1390): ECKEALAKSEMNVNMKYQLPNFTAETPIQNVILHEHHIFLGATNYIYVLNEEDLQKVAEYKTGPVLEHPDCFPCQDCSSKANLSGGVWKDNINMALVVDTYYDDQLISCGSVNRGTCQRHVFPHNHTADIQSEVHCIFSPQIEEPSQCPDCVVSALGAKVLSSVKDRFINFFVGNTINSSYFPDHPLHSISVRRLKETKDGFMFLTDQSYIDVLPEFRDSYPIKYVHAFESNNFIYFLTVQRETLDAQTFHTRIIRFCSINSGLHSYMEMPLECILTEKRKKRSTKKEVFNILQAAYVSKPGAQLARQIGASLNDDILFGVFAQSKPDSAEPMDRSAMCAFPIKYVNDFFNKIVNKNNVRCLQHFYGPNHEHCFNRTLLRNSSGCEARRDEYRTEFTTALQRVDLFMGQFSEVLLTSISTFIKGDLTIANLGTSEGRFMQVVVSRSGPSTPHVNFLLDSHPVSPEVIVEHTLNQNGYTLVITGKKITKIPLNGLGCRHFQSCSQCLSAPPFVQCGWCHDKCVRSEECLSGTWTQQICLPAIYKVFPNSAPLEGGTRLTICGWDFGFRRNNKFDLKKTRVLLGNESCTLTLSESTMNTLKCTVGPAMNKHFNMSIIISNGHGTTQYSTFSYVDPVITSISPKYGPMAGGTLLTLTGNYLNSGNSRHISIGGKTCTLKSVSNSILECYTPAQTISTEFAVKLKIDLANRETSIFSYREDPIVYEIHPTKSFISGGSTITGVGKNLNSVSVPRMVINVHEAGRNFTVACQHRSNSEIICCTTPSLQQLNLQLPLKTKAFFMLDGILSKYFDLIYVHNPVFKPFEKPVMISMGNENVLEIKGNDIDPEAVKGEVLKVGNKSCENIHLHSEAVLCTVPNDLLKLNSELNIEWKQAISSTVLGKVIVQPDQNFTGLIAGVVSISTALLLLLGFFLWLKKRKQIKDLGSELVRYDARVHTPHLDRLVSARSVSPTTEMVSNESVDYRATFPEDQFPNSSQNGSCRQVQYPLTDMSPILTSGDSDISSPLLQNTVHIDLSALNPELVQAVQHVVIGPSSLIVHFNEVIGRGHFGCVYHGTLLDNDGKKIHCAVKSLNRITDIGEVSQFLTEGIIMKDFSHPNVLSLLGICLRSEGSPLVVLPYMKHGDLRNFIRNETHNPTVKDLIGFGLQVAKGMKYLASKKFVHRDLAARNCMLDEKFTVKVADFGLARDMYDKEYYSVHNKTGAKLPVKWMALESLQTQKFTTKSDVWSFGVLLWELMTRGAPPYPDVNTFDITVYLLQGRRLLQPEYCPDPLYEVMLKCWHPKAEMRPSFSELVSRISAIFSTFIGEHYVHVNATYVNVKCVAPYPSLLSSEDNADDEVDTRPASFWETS

B1: M-8D9 (antibody, V domains shown)
VH: QVQLQESGPGLVKPSETLSLTCTVSGGSISGHYWSWIRQSPGKGLEWIGYITYSGSTNYNPSLKSRVTISVDTSKNQFSLKLSSVTAADTAVYYCGTIAVAGRVYYYGVDVWGRGTTVTVSS
VL: not shown
For B1, the “Percentage of Positive Cells” value [1] was 99.8%, the “Percentage of Positive Cells” value [2] was 65.3% and the Kd [3] was 18.6 nM. For the same binder, the koff [3] was 0.000505 s⁻¹ and the kon [3] was 27100 M⁻¹ s⁻¹.

B2: E-3A8 (antibody, V domains shown)
VH: EVQLVESGGGLVQPGGSLRLSCAVSGFIFSSYEMNWVRQAPGKGLEWVSYISSSGSTIYYADSVKGRFTISRDNAMNSLNLQMNSLRDEDTAVYYCVRVWYSSGWSGCFAYWGQGSLVTVSS
VL: not shown
B2 was tested, and the “Percentage of Positive Cells” value [4] was 23.8%, the “Percentage of Positive Cells” value [5] was 31.2% and the Kd [6] was 21.3 nM. It also gave a koff [6] of 0.00104 s⁻¹, a kon [6] of 48700 M⁻¹ s⁻¹ and a Kd [7] of 23.2 nM. It also gave a koff [7] of 0.00101 s⁻¹ and a kon [7] of 43500 M⁻¹ s⁻¹.

B3: E-3D8 (antibody, V domains shown)
VH: EVQLVESGGGLVQPGGSLRLSCAASGFIFSSYEMNWVRQAPGKGLEWVSYISSSGSTIYYADSVKGRFTISRDNAKNSLYLQMNSLRADDTAIYYCARVWYSSGWSGCFAYWGQGTLVTVSS
VL: not shown
For B3, the “Percentage of Positive Cells” value [4] was 24.1%, the “Percentage of Positive Cells” value [5] was 28.8% and the Kd [6] was 34 nM. It also gave a koff [6] of 0.00132 s⁻¹, a kon [6] of 38700 M⁻¹ s⁻¹ and a Kd [7] of 39 nM. The koff [7] was 0.00132 s⁻¹ and the kon [7] was 33900 M⁻¹ s⁻¹.

B4: E-2B7 (antibody, V domains shown)
VH: EVQLQQWGPGLVKPSQTLSLTCTVSGGSINSGDYYWSWIRQPPGKGLEWIGYIYYSGSTYYNPSLKSRVTISLDTSKNQLSLKLSSVTAADTAVYYCARNNDFGDYLYFDNWGQGTLVTVSS
VL: not shown
In the case of B4, the “Percentage of Positive Cells” value [4] is reported as 28.6%, the “Percentage of Positive Cells” value [5] is reported as 26.1% and the Kd [6] is reported as 5.32 nM. It also gave a koff [6] of 0.000342 s⁻¹, a kon [6] of 64300 M⁻¹ s⁻¹ and a Kd [7] of 4.69 nM. The koff [7] was 0.000286 s⁻¹, the kon [7] was 61000 M⁻¹ s⁻¹ and the binding result [8] was “no binding (tested: antigen up to 400 nM)”. For the same binder, the Kd [9] was 6.49 nM, the koff [9] was 0.000296 s⁻¹ and the kon [9] was 45600 M⁻¹ s⁻¹. It also gave a Kd [10] of 4.22 nM, a koff [10] of 0.000301 s⁻¹ and a kon [10] of 71500 M⁻¹ s⁻¹.

B5: E-2B7-M-2F11 (bispecific antibody)
VH 1: EVQLQQWGPGLVKPSQTLSLTCTVSGGSINSGDYYWSWIRQPPGKGLEWIGYIYYSGSTYYNPSLKSRVTISLDTSKNQLSLKLSSVTAADTAVYYCARNNDFGDYLYFDNWGQGTLVTVSS
VH 2: EVQLVESGPGLVKPSETLSLTCTVSGGSISSNYWSWIRQPPGKGLEWIGYIYHSGSTNYNPSLKSRVTISVDTSKNQFSLKLSSVTAADTAVYFCARGPVSIFGVVKYIDLWGRGTLVTVSS
light: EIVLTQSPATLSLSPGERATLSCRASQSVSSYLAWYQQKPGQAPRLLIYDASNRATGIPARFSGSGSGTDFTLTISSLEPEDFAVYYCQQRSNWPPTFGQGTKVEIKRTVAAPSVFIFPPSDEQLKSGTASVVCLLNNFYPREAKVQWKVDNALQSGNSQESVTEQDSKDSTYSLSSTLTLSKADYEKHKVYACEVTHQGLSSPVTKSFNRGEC
notes: 1+1 IgG1 bispecific with knobs-into-holes and a common light chain: first VH is the EGFR arm (E-2B7), second VH the MET arm (M-2F11); also called anti-EGFR/MET bispecific antibody E-2B7-M-2F11
Work on B5 yielded a Kd [8] of 28.1 nM, a koff [8] of 0.00109 s⁻¹ and a kon [8] of 38700 M⁻¹ s⁻¹. The Kd [9] was 11.8 nM, the koff [9] was 0.000522 s⁻¹ and the kon [9] was 44300 M⁻¹ s⁻¹. For the same binder, the Kd [10] was 6.82 nM, the koff [10] was 0.000503 s⁻¹ and the kon [10] was 73800 M⁻¹ s⁻¹.

B6: E-6C4-M-2G10 (bispecific antibody)
VH 1: QVQLQQWGPGLVKPSQTLSLTCTVSGGSINSGDYYWSWIRQPPGKGLESIGYIYYSGSTYYNPSLKSRVTISADTSKNQFSLKLTSVTAADTAVYYCARERVYSSSLDYWGQGTLVTVSS
VH 2: EVQLVESGGGVVQPGRSLRLSCAASGFTFNICGIHWVRQAPGKGLEWVATISHDANDKYYADSVKGRFTISRDNSKNTLYLQMNSLRAEDTAVYYCARDGNRGYDGYFDYWGQGTLVTVSS
light: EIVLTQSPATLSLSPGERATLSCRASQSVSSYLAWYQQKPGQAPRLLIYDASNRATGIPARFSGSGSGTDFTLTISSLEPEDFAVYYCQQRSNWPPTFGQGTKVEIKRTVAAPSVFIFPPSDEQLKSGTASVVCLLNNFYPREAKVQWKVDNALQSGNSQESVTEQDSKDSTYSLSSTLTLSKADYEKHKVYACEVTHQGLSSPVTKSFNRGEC
notes: also called anti-EGFR/MET bispecific antibody E-6C4-M-2G10
With B6 the Kd [8] was 41.7 nM, the koff [8] was 0.00165 s⁻¹ and the kon [8] was 39500 M⁻¹ s⁻¹. It also gave a Kd [9] of 80.9 nM, a koff [9] of 0.011 s⁻¹ and a kon [9] of 136000 M⁻¹ s⁻¹. For the same binder, the Kd [10] was 53.1 nM, the koff [10] was 0.0174 s⁻¹ and the kon [10] was 328000 M⁻¹ s⁻¹.

B7: E-9A6 (antibody, V domains shown)
VH: EVQLQQSGPGLVKPSQTLSLTCTVSGGSISSGDYYWNWIRQPPGKGLEWIGYIYYSGSTYYNPSLKSRVTISVDTSKNQFSLKLSSVTAADTAVYYCAREGVYTIMVDYWGQGTLVTVSS
VL: not shown
In the case of B7, the “Percentage of Positive Cells” value [11] is reported as 56.9%, the “Percentage of Positive Cells” value [12] is reported as 55.4% and the Kd [13] is reported as 12.6 nM. It also gave a koff [13] of 0.00173 s⁻¹, a kon [13] of 138000 M⁻¹ s⁻¹ and a Kd [14] of 9.44 nM. The koff [14] was 0.00176 s⁻¹ and the kon [14] was 186000 M⁻¹ s⁻¹.

B8: E-9D2 (antibody, V domains shown)
VH: EVQLQESGPGLVKPSQTLSLTCTVSGGSISSGDYYWSWIRQPPGKGLEWIGYIYYSGSTYYNPSLKSRVTISVDTSKNQFSLRLSSVTAADTAVYYCARDLVYYYALDVWGQGTTVTVSS
VL: not shown
For B8, the “Percentage of Positive Cells” value [11] was 38.7%, the “Percentage of Positive Cells” value [12] was 45.9% and the Kd [13] was 99.8 nM. It also gave a koff [13] of 0.0203 s⁻¹, a kon [13] of 203000 M⁻¹ s⁻¹ and a Kd [14] of 60.3 nM. It also gave a koff [14] of 0.0152 s⁻¹ and a kon [14] of 252000 M⁻¹ s⁻¹.

B9: E-6C4 (antibody, V domains shown)
VH: QVQLQQWGPGLVKPSQTLSLTCTVSGGSINSGDYYWSWIRQPPGKGLESIGYIYYSGSTYYNPSLKSRVTISADTSKNQFSLKLTSVTAADTAVYYCARERVYSSSLDYWGQGTLVTVSS
VL: not shown
For B9, the “Percentage of Positive Cells” value [4] was 25.4%, the “Percentage of Positive Cells” value [5] was 26.4% and the Kd [6] was 90.3 nM. For the same binder, the binding result [8] was “no binding (tested: antigen up to 400 nM)” and the Kd [9] was 158 nM.

B10: E-9H2 (antibody, V domains shown)
VH: EVQLVESGPGLVKPSQTLSLTCTVSGDSISSGDYYWSWIRQPPGKGLEWIGYIYYSGSTYYNPSLKSRVIISLDTSKNQFSLKLISVTAADTAVYYCARVGVYSTSRDYWGQGTLVTVSS
VL: not shown
For B10, the “Percentage of Positive Cells” value [11] was 44.3%, the “Percentage of Positive Cells” value [12] was 41.5% and the Kd [13] was 152 nM. For the same binder, the koff [13] was 0.0177 s⁻¹, the kon [13] was 117000 M⁻¹ s⁻¹ and the Kd [14] was 98.3 nM. The koff [14] was 0.0151 s⁻¹ and the kon [14] was 154000 M⁻¹ s⁻¹.

B11: E-9F3 (antibody, V domains shown)
VH: QVQLQESGPGLVKPSQTLSLTCTVSGGSINSGDYYWSWIRQPPGKGLEWIGHIYYSGITYYNPSLKSRVTISADTSKNQFSLKLTSVTVADTAVYYCDRAGVYHDMDVWGQGTTVTVSS
VL: not shown
With B11 the “Percentage of Positive Cells” value [11] was 53.1%, the “Percentage of Positive Cells” value [12] was 53.7% and the Kd [13] was 39.9 nM. For the same binder, the koff [13] was 0.0019 s⁻¹, the kon [13] was 47600 M⁻¹ s⁻¹ and the Kd [14] was 27.2 nM. The koff [14] was 0.00177 s⁻¹ and the kon [14] was 64900 M⁻¹ s⁻¹.

B12: M-2F11 (antibody, V domains shown)
VH: EVQLVESGPGLVKPSETLSLTCTVSGGSISSNYWSWIRQPPGKGLEWIGYIYHSGSTNYNPSLKSRVTISVDTSKNQFSLKLSSVTAADTAVYFCARGPVSIFGVVKYIDLWGRGTLVTVSS
VL: not shown
Work on B12 yielded a Kd [15] of 54.2 nM, a koff [15] of 0.00313 s⁻¹ and a kon [15] of 57700 M⁻¹ s⁻¹. The “Percentage of Positive Cells” value (human MET on SNU-5 cells) was 97.1%, the Kd [8] was 55.6 nM and the koff [8] was 0.0022 s⁻¹. For the same binder, the kon [8] was 39600 M⁻¹ s⁻¹, the binding result [9] was “no binding (tested: antigen up to 400 nM)” and the binding result [10] was “no binding (tested: antigen up to 400 nM)”. The “Percentage of Positive Cells” value [16] was 71.1%.

B13: E-6C4-M-2F11 (bispecific antibody)
VH 1: QVQLQQWGPGLVKPSQTLSLTCTVSGGSINSGDYYWSWIRQPPGKGLESIGYIYYSGSTYYNPSLKSRVTISADTSKNQFSLKLTSVTAADTAVYYCARERVYSSSLDYWGQGTLVTVSS
VH 2: EVQLVESGPGLVKPSETLSLTCTVSGGSISSNYWSWIRQPPGKGLEWIGYIYHSGSTNYNPSLKSRVTISVDTSKNQFSLKLSSVTAADTAVYFCARGPVSIFGVVKYIDLWGRGTLVTVSS
light: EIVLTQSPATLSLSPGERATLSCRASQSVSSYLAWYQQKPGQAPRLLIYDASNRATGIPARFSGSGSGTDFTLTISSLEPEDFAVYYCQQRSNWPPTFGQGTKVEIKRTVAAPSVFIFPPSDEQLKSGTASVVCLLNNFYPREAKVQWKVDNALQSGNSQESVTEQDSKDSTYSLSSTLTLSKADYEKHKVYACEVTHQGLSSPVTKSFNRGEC
notes: also called anti-EGFR/MET bispecific antibody E-6C4-M-2F11
Work on B13 yielded a Kd [8] of 50.5 nM, a koff [8] of 0.00187 s⁻¹ and a kon [8] of 37000 M⁻¹ s⁻¹. The Kd [9] was 115 nM, the koff [9] was 0.0198 s⁻¹ and the kon [9] was 172000 M⁻¹ s⁻¹. It also gave a Kd [10] of 70.7 nM, a koff [10] of 0.0215 s⁻¹ and a kon [10] of 304000 M⁻¹ s⁻¹.

B14: M-1E9 (antibody, V domains shown)
VH: QVQLQQWGAGLLKPSETLSLTCVVFGGSFSGYYWSWIRQPPGKGLEWIGEINHSGSTNYNPSLKSRVTVSVDTSKKQFSLNLRSVTAADTAVYYCARGRGIAAAGTYFDYWGQGNLVTVSS
VL: not shown
With B14 the Kd [15] was 30.1 nM, the koff [15] was 0.000698 s⁻¹ and the kon [15] was 23200 M⁻¹ s⁻¹. For the same binder, the “Percentage of Positive Cells” value (human MET on SNU-5 cells) was 99.3% and the “Percentage of Positive Cells” value [16] was 48.8%.
